The results in this text go back to patent publication US20250066498A1 (GO THERAPEUTICS, published 2025).

The target of experiment [1] is T1, LAMP1-Tn peptide Biotin-CEQDRPSPTTAPPAPPSPSP (human, N-terminal biotin; O-linked GalNAc on the serine at position 7 and the threonines at positions 9 and 10).
T1 construct: Synthetic 20-mer glycopeptide made by FMOC synthesis; also called LAMP1 glycopeptide; glycosylated LAMP1 peptide
T1 peptide: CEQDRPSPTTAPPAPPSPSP
The experiment in a line: SPR (Biacore), antibody immobilised, peptide as analyte. As for the experimental part: Antibody affinity assays can be carried out using surface plasmon resonance (e.g., using a Biacore system (Cytiva)). […] The affinity is determined by fitting the binding curve to a specific model: kinetic fit (1:1 model) or if applicable heterogenous ligand binding model.
To characterize the binding specificities of 3C7, 13C3, and 13G2 for non-glycosylated and Tn-glycosylated LAMP1, flow cytometry analysis of the LAMP1 mouse antibodies on T47D COSMC-KO cells was performed. […] The affinities of 3C7, 13C3, and 13G2 against the LAMP1 glycopeptides were determined by Biacore and Octet. Table 7 summarizes dissociation constants (Kd) for 3C7, 13C3, and 13G2 against different glycoforms of LAMP1 peptide, as well as unglycosylated LAMP1 and MUC1-Tn.
Background: Surface plasmon resonance follows binding to a sensor surface in real time, without labels.

The target in experiment [2] is T2, LAMP1-Tn (T1) peptide Biotin-CEQDRPSPTTAPPAPPSPSP (human, N-terminal biotin; GalNAc on one threonine (label 'T1'). By the order of items in paragraph 452 and paragraph 453 this is the threonine at position 9).
T2 construct: Singly glycosylated form of the LAMP1 20-mer
T2 peptide: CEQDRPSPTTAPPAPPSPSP
The experiment in a line: BLI (Octet), peptide on biosensor, apparent affinity. In general terms: BLI is a label-free optical method that tracks binding on a fibre tip over time.

Experiment [3] deals with T1, LAMP1-Tn peptide …. Described as above.
Experiment [4] deals with T1, LAMP1-Tn peptide …. The experiment in a line: BLI (Octet), peptide on biosensor, apparent affinity (Example 3). On the procedure: Antibody affinity and epitope binning of monoclonal antibodies can be assessed against specific antigens using BLI. […] The affinity is determined by fitting the binding curve to a specific model: a 1:1 monovalent model or a 2:1 bivalent model. The error (>95% confidence) is calculated by how close the generated curve matches the model.
To characterize the cross-reactivity between mAb237 the anti-glyco-LAMP1 antibodies 3C7, 13C3, and 13G2, the affinities of mAb237, 3C7, 13C3, and 13G2 against the glycosylated LAMP1 peptide, the unglycosylated LAMP1 peptide, and the podoplanin glycopeptide were determined by Octet. Table 8 summarizes the dissociation constants (Kd) for mAb237, 3C7, 13C3, and 13G2 against the glycosylated LAMP1 peptide, the unglycosylated LAMP1 peptide, and the podoplanin glycopeptide. No cross reactivity was observed despite the sequence similarities observed between mAb237 and 3C7, 13C3, and 13G2.

B1: 3C7.2C11.1C9 (antibody, V domains shown)
VH: EVKLEESGGGLVQPGGSMKVSCGASGFTFSDAWMDWVRQSPEKGLEWVAEMRSKAFNHAIYYAESVKGRFTISRDDSKSRVYLQMNLLRPEDTGIYYCTPNWDEGFAYWGQGTLVTVSA
VL: DVMLTQTPLSLPVSLGDQASISCRSSQSLVHSNGNTYLHWYLQKPGQSPKLLINKVSNRFFGVPDRFSGSGSGTDFTLKISRVEAEDLGVYFCSQSTHVPRTFGGGTKLEIK
notes: Mouse monoclonal antibody from a hybridoma (Balb/c mice immunised with KLH-LAMP1-Tn glycopeptide)
Consider B1, for which the Kd in experiment [1] worked out at 28.7 nM; in experiment [2], 810 nM; in experiment [3], 18.2 nM; in experiment [4], 13.9 nM.
